Results taken from the supplement of paper PMC11246515.
± gives the standard deviation of the averaged measurements.

Assay: total protein half-life in vivo (active degradation + dilution); higher = more stable protein
[1] = wild type E. coli NCM3722, growth: C-lim chemostat, doubling time 3 h
[2] = E. coli NCM3722 delta-clpP delta-lon delta-hslV, growth: N-lim chemostat, doubling time 6 h
[3] = wild type E. coli NCM3722, growth: C-lim chemostat, doubling time 6 h
[4] = wild type E. coli NCM3722, growth: N-lim chemostat, doubling time 12 h
[5] = wild type E. coli NCM3722, growth: P-lim chemostat, doubling time 6 h
[6] = wild type E. coli NCM3722, growth: P-lim chemostat, doubling time 12 h
[7] = E. coli NCM3722 delta-clpP, growth: N-lim chemostat, doubling time 6 h
[8] = E. coli NCM3722 delta-hslV, growth: N-lim chemostat, doubling time 6 h
[9] = E. coli NCM3722 delta-lon, growth: N-lim chemostat, doubling time 6 h
[10] = E. coli NCM3722 delta-smpB, growth: N-lim chemostat, doubling time 6 h
[11] = wild type E. coli NCM3722, growth: C-lim chemostat, doubling time 12 h
[12] = wild type E. coli NCM3722, growth: N-lim chemostat, doubling time 6 h

Sequence	total protein half-life in vivo [1] [h]	total protein half-life in vivo [2] [h]	total protein half-life in vivo [3] [h]	total protein half-life in vivo [4] [h]	total protein half-life in vivo [5] [h]	total protein half-life in vivo [6] [h]	total protein half-life in vivo [7] [h]	total protein half-life in vivo [8] [h]	total protein half-life in vivo [9] [h]	total protein half-life in vivo [10] [h]	total protein half-life in vivo [11] [h]	total protein half-life in vivo [12] [h]
MEKDYLRISSTVLVSLLFGLALVLVNSWFNQPGVEEVVPRSTYLMVMIALFFIDTVAFIFMQLYFIYDRRQFSNCVLSLAFLSCLIYFVITVIIIQQIIEERLTSSVVQNDIAIYYLFRQMSLCILIFLALVNKVSENTKQRNLFSKKMTLCISLFFVFGGPIVAHILSSHYESYNLHIAELTNENGQVVWKASYVTIMIFMWLTLLSVNLYFNGLRYDIWNGVTVIAFCAVLYNISLLFMSRYSVSTWYISRTIEVVSKLTVMVIFMCHIFSALRVTKNIAHRDPLTNIFNRNYFFNELTVQSASAQKTPYCVMIMDIDHFKKVNDTWGHPVGDQVIKTVVNIIGKSIRPDDLLARVGGEEFGVLLTDIDTERAKALAERIRENVERLTGDNPEYAIPQKVTISIGAVVTQENALNPNEIYRLADNALYEAKETGRNKVVVRDVVNFCESP	2.9	–	–	–	–	–	–	–	–	–	–	–
MDLNTLISQYGYAALVIGSLAEGETVTLLGGVAAHQGLLKFPLVVLSVALGGMIGDQVLYLCGRRFGGKLLRRFSKHQDKIERAQKLIQRHPYLFVIGTRFMYGFRVIGPTLIGASQLPPKIFLPLNILGAFAWALIFTTIGYAGGQVIAPWLHNLDQHLKHWVWLILVVVLVVGVRWWLKRRGKKKPDHQA	–	6.78	5.72	10.9	6.18	13.6	–	–	–	–	–	–
MRIGHGFDVHAFGGEGPIIIGGVRIPYEKGLLAHSDGDVALHALTDALLGAAALGDIGKLFPDTDPAFKGADSRELLREAWRRIQAKGYTLGNVDVTIIAQAPKMLPHIPQMRVFIAEDLGCHMDDVNVKATTTEKLGFTGRGEGIACEAVALLIKATK	2.872 ± 0.01	5.75 ± 0.23	6.85 ± 1.3	8.67 ± 0.53	5.806 ± 0.032	12.9 ± 0.45	4.63 ± 0.57	4.88 ± 0.23	5 ± 0.85	4.88 ± 0.38	10.7	4.9 ± 0.24
MIRNVLLAFMICSGMTLLGGCSSVMSHTGGKEGTYPGTRASATMIGDDETNWGTKSLAILDMPFTAVMDTLLLPWDVFRKDSSVRSRVEKSEANAQATNAVIPPARMPDN [P0ADM4]	2.6 ± 0.12	5.58 ± 0.24	4.71 ± 0.37	11 ± 1.4	4.8 ± 0.24	11.1 ± 0.31	6 ± 0.66	5.46 ± 0.49	5.9 ± 0.34	4.43 ± 0.12	8.87 ± 1.3	5.84 ± 0.094
MKLVGSYTSPFVRKLSILLLEKGITFEFINELPYNADNGVAQFNPLGKVPVLVTEEGECWFDSPIIAEYIELMNVAPAMLPRDPLESLRVRKIEALADGIMDAGLVSVREQARPAAQQSEDELLRQREKINRSLDVLEGYLVDGTLKTDTVNLATIAIACAVGYLNFRRVAPGWCVDRPHLVKLVENLFSRESFARTEPPKA [P0ACA1]	3.22 ± 0.13	5.35 ± 1.8	5.52 ± 0.17	6.719 ± 0.0095	5.51 ± 0.23	12 ± 1	3.78 ± 0.28	4.118 ± 0.04	4.31 ± 0.48	4.22 ± 0.18	10.7 ± 0.87	4.16 ± 0.18
MSFELPALPYAKDALAPHISAETIEYHYGKHHQTYVTNLNNLIKGTAFEGKSLEEIIRSSEGGVFNNAAQVWNHTFYWNCLAPNAGGEPTGKVAEAIAASFGSFADFKAQFTDAAIKNFGSGWTWLVKNSDGKLAIVSTSNAGTPLTTDATPLLTVDVWEHAYYIDYRNARPGYLEHFWALVNWEFVAKNLAA [P0AGD3]	3.18 ± 0.084	5.3 ± 0.47	5.96 ± 0.084	9.76 ± 0.58	5.95 ± 0.27	12 ± 0.36	5.56 ± 1.2	4.773 ± 0.02	6.2 ± 1.1	4.8 ± 0.58	11.6 ± 0.35	5.07 ± 0.39
MSIDRTSPLKPVSTVQPRETTDAPVTNSRAAKTTASTSTSVTLSDAQAKLMQPGSSDINLERVEALKLAIRNGELKMDTGKIADALINEAQQDLQSN [P0AEM4]	0.693 ± 0.42	–	0.442	–	–	–	–	–	–	–	0.862 ± 0.19	–
MKYDLIIIGSGSVGAAAGYYATRAGLNVLMTDAHMPPHQHGSHHGDTRLIRHAYGEGEKYVPLVLRAQTLWDELSRHNEEDPIFVRSGVINLGPADSTFLANVAHSAEQWQLNVEKLDAQGIMARWPEIRVPDNYIGLFETDSGFLRSELAIKTWIQLAKEAGCAQLFNCPVTAIRHDDDGVTIETADGEYQAKKAIVCAGTWVKDLLPELPVQPVRKVFAWYQADGRYSVKNKFPAFTGELPNGDQYYGFPAENDALKIGKHNGGQVIHSADERVPFAEVASDGSEAFPFLRNVLPGIGCCLYGAACTYDNSPDEDFIIDTLPGHDNTLLITGLSGHGFKFASVLGEIAADFAQDKKSDFDLTPFRLSRFQ	2.99 ± 0.11	4.35 ± 1.2	5.49 ± 0.24	5.46 ± 0.065	5.55 ± 0.089	10.5 ± 0.16	3.046 ± 0.022	3.23 ± 0.11	3.34 ± 0.26	3.1 ± 0.046	6.92 ± 1.5	3.11 ± 0.23
MKKSTLALVVMGIVASASVQAAEIYNKDGNKLDVYGKVKAMHYMSDNASKDGDQSYIRFGFKGETQINDQLTGYGRWEAEFAGNKAESDTAQQKTRLAFAGLKYKDLGSFDYGRNLGALYDVEAWTDMFPEFGGDSSAQTDNFMTKRASGLATYRNTDFFGVIDGLNLTLQYQGKNENRDVKKQNGDGFGTSLTYDFGGSDFAISGAYTNSDRTNEQNLQSRGTGKRAEAWATGLKYDANNIYLATFYSETRKMTPITGGFANKTQNFEAVAQYQFDFGLRPSLGYVLSKGKDIEGIGDEDLVNYIDVGATYYFNKNMSAFVDYKINQLDSDNKLNINNDDIVAVGMTYQF	–	6.3	5.98 ± 0.22	11 ± 2.1	6.41 ± 0.31	13.9 ± 1.1	> 8	6.65 ± 0.12	–	6.18 ± 0.13	12.6 ± 1.1	–
MAAIAFIGLGQMGSPMASNLLQQGHQLRVFDVNAEAVRHLVDKGATPAANPAQAAKDAEFIITMLPNGDLVRNVLFGENGVCEGLSTDALVIDMSTIHPLQTDKLIADMQAKGFSMMDVPVGRTSANAITGTLLLLAGGTAEQVERATPILMAMGSELINAGGPGMGIRVKLINNYMSIALNALSAEAAVLCEALNLPFDVAVKVMSGTAAGKGHFTTSWPNKVLSGDLSPAFMIDLAHKDLGIALDVANQLHVPMPLGAASREVYSQARAAGRGRQDWSAILEQVRVSAGMTAKVKM [P0A9V8]	> 4	–	4.77 ± 1.8	–	–	–	–	–	–	–	–	–
